How the values were obtained:
[1] = substrate: C[C@H](O)[C@H](O)[C@H]1CNc2nc(N)[nH]c(=O)c2N1; assay: purified protein, by the assay type; settings: other: rat liver enzyme; Km of substrate with the pterin as cofactor
[2] = substrate: C[C@H](O)[C@H](O)[C@H]1CNc2nc(N)[nH]c(=O)c2N1; assay: cells, lysate or membranes named; settings: other: Km of substrate with the pterin as cofactor

Row | Protein | Km [1] [µM] | Km [2] [µM]
1 | Phenylalanine hydroxylase (Rattus norvegicus) (protein) MAAVVLENGVLSRKLSDFGQETSYIEDNSNQNGAISLIFSLKEEVGALAKVLRLFEENDINLTHIESRPSRLNKDEYEFFTYLDKRTKPVLGSIIKSLRNDIGATVHELSRDKEKNTVPWFPRTIQELDRFANQILSYGAELDADHPGFKDPVYRARRKQFADIAYNYRHGQPIPRVEYTEEEKQTWGTVFRTLKALYKTHACYEHNHIFPLLEKYCGFREDNIPQLEDVSQFLQTCTGFRLRPVAGLLSSRDFLGGLAFRVFHCTQYIRHGSKPMYTPEPDICHELLGHVPLFSDRSFAQFSQEIGLASLGAPDEYIEKLATIYWFTVEFGLCKEGDSIKAYGAGLLSSFGELQYCLSDKPKLLPLELEKTACQEYSVTEFQPLYYVAESFSDAKEKVRTFAATIPRPFSVRYDPYTQRVEVLDNTQQLKILADSINSEVGILCNALQKIKS | 123 | –
2 | Tryptophan hydroxylase (Rattus norvegicus) (protein) MQPAMMMFSSKYWARRGLSLDSAVPEEHQILGGLTQNKATASKSEDKRSGKDTSESSKTAVVFSLKNEVGGLVRALRLFQEKHVNMLHIESRRSRRRSSEVEIFVDCECGKTEFNELIQLLKFQTTIVTLNPPDNIWTEEEELEDVPWFPRKISELDRCSHRVLMYGTELDADHPGFKDNVYRQRRKYFVDVAMGYKYGQPIPRVEYTEEETKTWGVVFRELSKLYPTHACREYLKNFPLLTKYCGYREDNVPQLEDVSMFLKERSGFTVRPVAGYLSPRDFLAGLAYRVFHCTQYVRHGSDPLYTPEPDTCHELLGHVPLLADPKFAQFSQEIGLASLGASDEDVQKLATCYFFTIEFGLCKQEGQLRAYGAGLLSSIGELKHALSDKACVKAFDPKTTCLQECLITTFQDAYFVSESFEEAKEKMRDFAKSITRPFSVYFNPYTQSIEILKDTRSIENVVQDLRSDLNTVCDALNKMNQYLGI | – | 15

From patent publication US4701455A, “Biopterin analogs” (Burroughs Wellcome Co., priority 1983, dated 1987)
